Experimental data from the DeepSol protein solubility set.

Test: soluble on expression in E. coli; label from the status in PepcDB or PDB records

| Sequence | soluble on expression in E. coli |
| --- | --- |
| MALVPVYCLCRQPYNVNHFMIECGLCQDWFHGSCVGIEEENAVDIDIYHCPDCEAVFGPSIMKNWH | soluble |
| MSLSELLDLSFLSEEEKDLILSVLQRDEEVRKADEKRIRRLKNELLEIKRKGAKRGSQHYSDRTCARCQESLGRLSPKTNTCRGCNHLVCRDCRIQESNGTWRCKVCAKEIEMKKATGDWFYDQKVNRFAYRTGSEIIRMSLRHKPAVSKREGHHHHHH | not soluble |
| MGSDKIHHHHHHMLLLEVKNVSKSYGDTEVLKNVSFELNEGDVMGVLGRSGAGKSVLLHMLRGMEGYEPTSGQIIYHVAYCPHCENVEAPSQVGKKCECETEYVAKSVDFWNNNEITYALKKKIAIMLQRTFALYGEKTVAENIMEALTAAGYEGKDATEWALNLIKMVKLEHRVAHISRDLSGGEKQRVVLARQIAKNPVIFLADEPTGTLDPKTAKFVHNALTEAVIKHNIAMVITSHWPEVIEELCQKAIWLDKGEMRLVGESKHVVEEFMKTVTSMKEFEKVEVKDELLKLENVEKRYVSVDRGIVKAVDGIDVSINEKEIFGLVGVSGAGKTTLSKIIAAVIPPSKGNYEFRLADEWVDMTKVGPLYRGRAKRYIGMLFQEYSLYPHRTILYNLTESIGLEMPGEFAKMKAEHTLVSVGFTEEEAENMLEKHPSELSVGEKHRVALAQVLIREPHLILLDEPTGTMDPITRNQVAESIQKSRSELDQTYVIVSHDMDFVLNVCDRAALVRGGKIIKTGKPDEIVKILSEEEKDEMIGH | not soluble |
| MKTTDLFSTLENNILRNSLDSTTKDKLLSNLSLLRKASLNILITGSTGSGKSSTINALFDMTVAQVGIDSDPHTESVQCYHLNNLVLWDTPGLGDGIDEDKKHVQAIKQLLNKRDDHGQLAIDLVLVILDGGSRDLGTPLRLINDIVIPQLGDDAEKRLIVAVNQADVALKGPESWNYSDNLPTDKAKAFLEKQQNSIARRIHKATQINVKTLYFVAGYSDGVNRQRPYNLSKLLYTIVEILPNNKRVMLANRTISNDADNWKDNDASDYNKKTTLSLWEAIVETTLQGASIGSDIGSIFGKPGEILGKVVGSVAGLFFGGLRYTFGFLEHHHHHH | soluble |
| MGSDKIHHHHHHMTVTILHEANSIDTDYVKRARLISDKFLELIILPTEQCNFRCTYCYEDFSIGRMQPETIAGIKAILDKRCPNLSYLNLAWFGGEPLVAKNIVLDISEYALSLVSKYPHLHYSSNMTTNGYLLDLNTASALANVGVTKYQISLDGPREIHNQSRIRADGKSTFERIWTNLLAIRDSSLPIYINLRLHFTIDTVKLIDPLLEDIKREFLPDSRFSVYFKSIERLGGTNDASIKIYSESEKNTAIKTLEAKLFGEKLQSPQNATLPDDYVCYASRPNSLVIRANGSVGKCTVALSDERNNIGTLRTDGRLDLIPGRFAPWVRGIQTLDPDVLGCPLVSLPTSDEIATNLQTKALAV | not soluble |
| MSLENKFARTVLGDIPVEKLGITDCHDHFIKNGGPEVEEHIDFLMLNVDASIKEFKEFIDRGGSTIVTMDPPNVGRDVLKTLEIANAVKNLGGNVIMSTGFHKAKFYDKYSSWLAVVPTEEIVKMCVAEIEEGMDEYNYNGPVVKRSKAKAGIIKAGTGYGAIDRLELKALEVAARTSILTGCPILVHTQLGTMALEVAKHLIGFGANPDKIQISHLNKNPDKYYYEKVIKETGVTLCFDGPDRVKYYPDSLLAENIKYLVDKGLQKHITLSLDAGRILYQRNYGLTKGKQTFGLAYLFDRFLPLLKQVGVSKEAIFDILVNNPKRVLAFDEKRNFDPLKVSKEVLELKKELNLNEGHHHHHH | soluble |
| GPGSMHRIVKVNVGGRYFQTRLSTLLRFPDTSFARMFEGLASTSALPPTLSPPPQPTESEDVFVDANPDVFEKVLGFLRTNRIQLPLNDECLRAELVHHLNSWDLMPHAFPASAADGAVEGEEAHRIELPDVCVVQLCDHMQHDQGVKRHAMTITYGADGFQLRKLTQMIRRDLNQQLSSTYWQCYQTNERAAFFATTKVANGAADILTTSITQQVVQHTERLGYHLATSYVTL | not soluble |
| MSLIIKNAKVVTHDMQLKEPWAIAGHVHDSIKNTFITLEDSEGNIGIGSCATQNDSEESVKECFDILESFSSSLVGKELGLNENTFGWIASELPLNTEANAAVDIAIHDLWAKREEKTLVDALGKKHQSFDTSITIGVASLEKTIEMAKKHIGNGFSILKIKIGDCVEEDIERMKALFELKPEKIKIRVDANRGYSKEELIKFYEKTLHLGLELIEQPMEVDQNNEMLYFPEEIRKICVADESLQNFDDAVRLLKEPKPFGVFNIKLMKCGGVFAAKKIASLAEENGIELMWGCFDESKISISAALHTALSCENTRYIDLDGFFDLGWDLIEGGYRCENGIMSAIERPGLGVFSEGHHHHHH | soluble |
| MSLSFRFAFRPYQRRLRQPLRTARDAQITVRLGIWLRLETDTEVRWGEIAPWPSFGSETLAEAIAFCEAFPPDPEWEDLATAPDSLPACQFGFGCLRESNATDFLPTSAVLLPAGAAALTAIATASPATTYKWKIGLDLESELDLLPQLDRLLPSAAKLRLDANGGLTKAQADRLLQVLTAINERRSGRIEWLEQPLDPSQVDDLLQLVQDWPLVAIALDESVSQLSSLQFWQAQGWPGLYVLKPAIAGWPQTVRQFCQVHHLPVVVSSMFESPIGWRAVAAIAAQLGRADQAQGLGTTAWFTDDWESKTAAALWQHPEGHHHHHH | not soluble |
| MKSFIKIHKQDNVLLALRYIQKGERLHAYGVSIEVKDDIKRGHKIALQSIKENDSIVKYGFPIGHASQDISIGEHIHVHNTKTNLSDIQLYSYTPRFDENPYSNENRTFKGFRRENGDAGVRNELWIVPTVGCVNGIAEKMLQRFVRETGDIAPFDNVLVLKHQYGCSQLGDDHENTKQILLNAIRHPNAGGVLVLGLGCENNELARMKEALQDVNLKRVKFLESQSVTDEMEAGVALLKEIHEAAKGDKREDIPLSELKIGLKCGGSDGFSGITANPLLGRFSDYLIAQGGSTVLTEVPEMFGAETILMQRAANEEVFHKIVDLINDFKQYFIKHDQPVYENPSPGNKAGGISTLEDKSLGCTQKAGISPVTDVLKYGEVLKTKGLTLLSAPGNDLIASSALAAAGCQIVLFTTGRGTPFGTFVPTVKVATNTELYEAKPHWIDFNAGLLAEDDVHEEYVLREFIHYMIEVASGQLVNHEKNDFKELAIFKSGVTL | not soluble |
| MDLSAVRFDEKGLVPVVVQDARTGEVLTLAYANREALEETLRTRRSTFFSRSRQALWRKGETSGHTQEVVEVLLDCDGDAVVYRVLPQGPACHTGERTCFHRALLEGEKDLGFVVGQVYATIKERLRTLPEGSYVARMHQAGLDRILKKIGEEAGEVILAAKNQNPEELRHEAADLLFHLLLTLAELGLTPEDLAKTLWERHRPRSPYDGSHGN | soluble |
| MGSDKIHHHHHHMRLFRKEPKAEQLKVIIIGAGEVGYHIAHRLTRENKQVVVVDQQPEALRRVAEALDVQTIRGSGSSPVVLHDAGAEDADIILAVTDSDEINIIACLFANIISPASTKLARIRNEEYTLYRDALAQDILNISMIINPEVEVVKNIDRLLSLPGAVDYSEFADGRIRMVGMRICSGPLVGVRLMNFRTVISDGDVIIAAIVRNDELIIPTGMDEIRADDVVYFVCTESSLESVRNVVAALEDPIRSALIVGGGNIGMRLATLFERKGYHTKLVDRDEERCAVLAEKLNSTIVLHGDGTDQDLLREENAGTMDAVVCLTSDEETNILCSLLAKNMGVRKTVARINKVAYQPLVRAIGIEHSVSPRLSAVNSILHYIRKGKVLSSVAIRGEEAEVMEALAEAQSDIVGRPIHKLSFPKGALVLALVRGTEVVIPSGDTVIEPQDRILILSTRQAVSDVEQALMVKLKAY | not soluble |
| MTGKKTLSIVGASGYAGGEFLRLALSHPYLEVKQVTSRRFAGEPVHFVHPNLRGRTNLKFVPPEKLEPADILVLALPHGVFAREFDRYSALAPVLVDLSADFRLKDPELYRRYYGEHPRPDLLGRFVYAVPELYREALKGADWIAGAGCNATATLLGLYPLLKAGVLKPTPIFVTLLISTSAGGAEASPASHHPERAGSIRVYKPTGHRHTAEVVENLPGRPEVHLTAIATDRVRGILMTAQCFVQDGWSERDVWQAYREAYAGEPFIRLVKQKKGVHRYPDPRFVQGTNYADIGFELEEDTGRLVVMTAIDNLVKGTAGHALQALNVRMGWPETLGLDFPGLHP | soluble |
| AVFRHTLLHFFERLQSNDIYYKFHNILFLKCEHTEQNAAVIAIARKHQAIWREKITAVLTEAVENQDLADDLDKETAVIFIKSTLDGLIWRWFSSCERFDLGKTAPRIIGIMMDNLENHPDLRRK | not soluble |
